This passage reports IC50 results from CN113929781A (MABWELL SHANGHAI BIOTECHNOLOGY CO LTD; JIANGSU MAIWEIKANG …, dated 2022).

The target in test [1] is T1, 人PD-1-hFc (human, UniProt Q15116 21-167).
T1 construct: range 21-167; also called 重组人PD-1; Lot 20180329; not shown: human Fc (hFc)
In words: competition ELISA, PD-1-hFc coated, competitor PD-L1-mFc at 1 μg/mL.

In test [2] the target is T1, 人PD-1-hFc. As to the kind of experiment: competition ELISA, PD-1-hFc coated, competitor PD-L2-hFc-Biotin at 2 μg/mL.

T1 sequence (Q15116 21-167 limits assumed, form in doubt): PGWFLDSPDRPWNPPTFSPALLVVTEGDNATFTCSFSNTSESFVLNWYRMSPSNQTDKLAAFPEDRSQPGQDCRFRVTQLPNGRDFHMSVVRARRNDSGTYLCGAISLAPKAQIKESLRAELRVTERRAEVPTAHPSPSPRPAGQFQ

B1: h317 (antibody, V domains shown)
VH: EVQLVESGGGLVKPGGSLRLSCAASGFTFSSYDMSWVRQAPGKGLEWVATISGGGSYTYYPDSVKGRFTISRDNAKNSLYLQMNSLRAEDTAVYYCASPDSSGVAYWGQGTLVTVSS
VL: DIVMTQSPLSLPVTPGEPASITCKASQDVETVVAWYLQKPGQSPRLLIYWASTRHTGVPDRFSGSGSGTDFTLKISRVEAEDVGVYYCQQYSRYPWTFGQGTKL
For the molecule B1, the IC50 stood at 1.4 nM in the test with 人PD-1-hFc [1] and 1.2 nM in the test with 人PD-1-hFc [2].
